Reference: publication PMC8193172

Target: Hydrophobin-BMP2 fusion protein (UniProt P12643)
Assay: SDS-PAGE and Western blot

- stoichiometry N: 2
Substance: Hydrophobin-BMP2 fusion protein (from UniProt P12643 283-396)
